Assay results: paper PMC10659534 (Research Square, 2023)

Experiments:
Assay in all cases: ELISA
Details in all cases: both partners purified
[1] = target: T1, soluble recombinant H7N9 HA based on A/Shanghai/2/2013 (Influenza A virus A/Shanghai/2/2013 …, UniProt R4NN21)
T1 construct: source: bought: Immune Technologies, New York, NY

[2] = target: H7N9 HA (A/Shanghai/2/2013) pre-treated with Endoglycosidase H (Influenza A virus A/Shanghai/2/2013 …, UniProt R4NN21)
[3] = target: T2, recombinant H7N7 HA based on A/Netherlands/219/2003 (Influenza A virus …, UniProt Q6VMK1)
T2 construct: source: bought: Immune Technologies, New York, NY

[4] = target: H15N8 HA (Influenza A virus H15N8, strain not …, UniProt Q82565, strain)
[5] = target: H7N9 HA1 based on A/Shanghai/2/2013 (Influenza A virus A/Shanghai/2/2013 …, UniProt R4NN21, strain)

| Binder | binding result [1] | binding result [2] | binding result [3] | binding result [4] | binding result [5] |
| --- | --- | --- | --- | --- | --- |
| H7.HK3 (antibody, V domains shown, also called H7.HK3 mAb) VH: QVQLVQSGSELKRPGASVKVSCRASGYTFTSYTINWVRQAPGQGLEWMGWINTSTGDPTYAQGFTGRFVFSLDTSVSTAYLEISRLKAEDTAVYYCARAFGLTVVRGGIVGVWGQGTTVTVSS VL: not shown | binds | binds | binds | binds | binds |
| H7.HK1 (antibody, V domains shown, also called H7.HK1 mAb; H7.HK1 human IgG1) VH: QVQLQESGPGLVKPSETLSLTCSVSGGSINSYYWTWIRQPPGKGLEWVGYIYHSGSTSYNPSLKSRITISVAPSKNHFSLELTSMTAADTAVYYCARLGGHGDYGSDYWGQGTLVTVSS VL: DIVMTQSPVSLPVTPGEPASISCNSSQSLLHSNGYAHLDWYLQKPGQSPKLMIYLGLNRAFGVPDRFSGSGSGTDFTLKISRVEAEDVGVYYCMQALQTPFTFGPGTRVDIK | binds | binds | binds | – | binds |
| H7.HK4 (antibody, V domains shown, also called H7.HK4 mAb) VH: QVQLQESGPGLVKPSETLSLTCTVSGGSVRSASYAWSWIRQPPGKGLEWIGDIYYSGTTNYNPSLKSRVTLSVDTAKNRFSLRLRSVTAADTAVYHCARERYYYGSSGDFDYWGQGTLVTVSS VL: DIQMTQSPSSLSASVGDRVTITCRASQGIRNYLAWFQQKPGQAPKSLIFAASSLHTGVPSRFSGSGSGTDFTLTISSLQPEDFATYYCQHYNSYPPTFGQGTKLEIK | binds | binds | binds | binds | no binding |
| H7.HK2 (antibody, V domains shown, also called H7.HK2 mAb; H7.HK2 human IgG1) VH: QVQLQGSGPGLLRPSETLSLTCSVSGVSINSYYWSWVRQPPGKALEWIGYIYYSGNTNYNPSLESRVTISVDRSKNQFSLKMTSVTAADTARYFCARQGIFGDYGSDYWGPGTLVTVSS VL: DIVMTQSPLSLPVTPGEPASISCRSNQSLQHSNGYVHLDWYRQKPGQSPHLLIYLGFNRASGVPDRFSGGGSGTDFTLKISRVEAEDVGVYYCMQGLQTPFTFGPGTTVDLK | binds | binds | binds | – | binds |
